# Results: doi:10.1101/2022.11.07.515396, “Functional and structural asymmetry suggest a unifying principle for catalysis in integral membrane-bound pyrophosphatases” (bioRxiv, 2022)
# Columns and labels:
# [1] = target: the molecule itself; assay: crystal structure; TmPPase in OGNG with 0.4 mM K4PPi, vapour diffusion, 24-26% v/v PEG 400, 50-60 mM Tris-HCl pH 8.5, 2-3 mM MgCl2, 175 mM KCl, 2 mM DTT, 20 °C; time-resolved cryo-trapping after soaking in Na+ trigger solution (0-3600 seconds); molecular replacement with PDB 4AV3
# [2] = target: the molecule itself; assay: crystal structure; PaPPase in DM with 2 mM IDP, vapour diffusion, 30-33% v/v PEG 400, 0.1 M MES pH 6.5, 0.05 M LiSO4, 0.05 M NaCl, 20 °C; space group P21; eight datasets combined; molecular replacement with PDB 5LZQ
Protein,stoichiometry N [1],stoichiometry N [2]
"K+-dependent Na+-pumping membrane-bound pyrophosphatase from Thermotoga maritima (TmPPase), wild type (enzyme, UniProt Q9S5X0 1-726, looked up, also called K+-dependent Na+-PPase; TmPPase:Mg2; source: S. cerevisiae BJ1991, purified (hot-solve, nickel-NTA, in OGNG)) MYVAALFFLIPLVALGFAAANFAAVVRKPEGTERMKEISSYIRSGADSFLAHETKAIFKVAIVIAILLMIFTTWQTGVAFLLGAVMSASAGIVGMKMATRANVRVAEAARTTKKIGPALKVAYQGGSVMGLSVGGFALLGLVLVYLIFGKWMGQVDNLNIYTNWLGINFVPFAMTVSGYALGCSIIAMFDRVGGGVYTKAADMAADLVGKTELNLPEDDPRNPATIADNVGDNVGDVAGLGADLLESFVGAIVSSIILASYMFPIYVQKIGENLVHQVPKETIQALISYPIFFALVGLGCSMLGILYVIVKKPSDNPQRELNISLWTSALLTVVLTAFLTYFYLKDLQGLDVVGFRFGAISPWFSAIIGIFSGILIGFWAEYYTSYRYKPTQFLSKSSIEGTGMVISNGLSLGMKSVFPPTLTLVLGILFADYFAGLYGVAIAALGMLSFVATSVSVDSYGPIADNAGGISEMCELDPEVRKITDHLDAVGNTTAAIGKGFAIGSAIFAALSLFASYMFSQISPSDIGKPPSLVLLLNMLDARVIAGALLGAAITYYFSGYLISAVTKAAMKMVDEIRRQAREIPGLLEGKAKPDYNRCIEITSDNALKQMGYPAFIAILTPLVTGFLLGAEFVGGVLIGTVLSGAMLAILTANSGGAWDNAKKYLEAGNLEGYGKGSEPHKALVIGDTVGDPLKDTVGPSLDILIKIMSVVSVIAVSIFKHVHLF",2,
"K+-independent H+-pumping membrane-bound pyrophosphatase from Pyrobaculum aerophilum (PaPPase), wild type (enzyme, UniProt Q8ZWI8 1-721, looked up, also called PaPPase:Mg5IDP; K+-independent H+-PPase; source: S. cerevisiae BJ1991, purified (hot-solve in DDM, nickel-NTA, protein in DM for crystals)) MNMISYALLGVILGISGVIYAVYLAVWVLRQDPGNEKMRFISQAIATGARAYLFRQYRTLAVLLVILAVLILVAIDMPRRTFGLTALAFIVGALGSMLAGYLGMYVTTRSASRVAQAAATGGMGKALLVSWRAGAVMGLSLASIALLLISGFYLVFRSVLPDDWAVPLVALGFGASLVTLFMRVGGGIYTKAADLGADLVGKVEAGIPEDDPRNPGVIADNVGDNVGDVAGMAADVYESYIVTVTAAIFLAAILGLPTQFIEAIILFAALALVATFAGVNLLKTTGVKHPLSSISLAIYATIGLSVVLFFIGAFTLGLDSTKALALAATTSLGAVIAPLIVKITDYYTSYNYGPVRKIAEQAKISPATVIITGYGVGLMSAIPVIAVIVAVLGISYMIGYYTVPVSGFGELSKYLAGIFGTAMASVGLLVVAGIIITADSYGPVSDNAGGVVEMAGLPDEVREITDVLDSVGNTTKATTKGYAIASAALAALVLFIALIFEIVYSASKILGKGIVDMISESLSGLQLINANVLIGAFLGVALVYFFSSRTLEAVGRTAMEIVEEIRRQFREKPGILEWKEQPDYARVVDIATRRALGEFLIPGLAAIVLPLITGLLLGWNALAGLIMGAIVAGVPRALLMANAGGAWDNAKKYIEIQGLKKTEMHKAAVIGDTVGDPMKDTVGPSLNPLIKVLNTLSVVFTYVIVSTNIALGIWPSGLLPF",,2
